Drawing on patent US20220332804A1 (CSL INNOVATION, published 2022), this text covers Fold diff for one molecule.

Changes are numbered by the printed parent chain.

What all share (assay): SPR, KD relative to WT C2;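 further: biacore SPR at 37 °C, anti-C2 mAbs captured via immobilised goat anti-human IgG, C2 alanine or serine surface mutants as analytes, 1:1 model fitted, double-referenced sensograms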
In one experiment the target is T1, human C2 L439A (human, UniProt P06681 21-752).
T1 sequence: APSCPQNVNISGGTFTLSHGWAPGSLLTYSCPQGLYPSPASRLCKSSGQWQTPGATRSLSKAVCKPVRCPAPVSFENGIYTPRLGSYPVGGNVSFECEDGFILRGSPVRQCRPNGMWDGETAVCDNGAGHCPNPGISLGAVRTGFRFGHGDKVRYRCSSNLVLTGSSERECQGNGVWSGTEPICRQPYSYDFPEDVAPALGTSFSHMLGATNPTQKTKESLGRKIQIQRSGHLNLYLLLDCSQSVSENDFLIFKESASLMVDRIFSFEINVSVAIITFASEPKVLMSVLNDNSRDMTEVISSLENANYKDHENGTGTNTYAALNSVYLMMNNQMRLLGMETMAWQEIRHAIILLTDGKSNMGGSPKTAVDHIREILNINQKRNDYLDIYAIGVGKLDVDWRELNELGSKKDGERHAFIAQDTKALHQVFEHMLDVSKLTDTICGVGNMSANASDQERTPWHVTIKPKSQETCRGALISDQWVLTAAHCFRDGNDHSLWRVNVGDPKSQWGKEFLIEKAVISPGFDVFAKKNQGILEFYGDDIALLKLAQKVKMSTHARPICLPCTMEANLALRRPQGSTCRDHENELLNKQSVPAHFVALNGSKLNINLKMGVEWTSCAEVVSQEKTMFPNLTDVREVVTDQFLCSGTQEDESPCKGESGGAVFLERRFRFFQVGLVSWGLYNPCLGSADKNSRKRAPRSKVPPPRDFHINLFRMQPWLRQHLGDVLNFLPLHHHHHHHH

The next experiment concerns the target T2, human C2 K550A (human, UniProt P06681 21-752).
T2 sequence: T1 sequence with A419L, K530A

The next experiment has as its target T3, human C2 E645A (human, UniProt P06681 21-752).
T3 sequence: T1 sequence with A419L, E625A

A further experiment addresses T4, human C2 G530A (human, UniProt P06681 21-752).
T4 sequence: T1 sequence with A419L, G510A

B1: RF16-226 (antibody, human IgG4 S228P, lambda)
heavy: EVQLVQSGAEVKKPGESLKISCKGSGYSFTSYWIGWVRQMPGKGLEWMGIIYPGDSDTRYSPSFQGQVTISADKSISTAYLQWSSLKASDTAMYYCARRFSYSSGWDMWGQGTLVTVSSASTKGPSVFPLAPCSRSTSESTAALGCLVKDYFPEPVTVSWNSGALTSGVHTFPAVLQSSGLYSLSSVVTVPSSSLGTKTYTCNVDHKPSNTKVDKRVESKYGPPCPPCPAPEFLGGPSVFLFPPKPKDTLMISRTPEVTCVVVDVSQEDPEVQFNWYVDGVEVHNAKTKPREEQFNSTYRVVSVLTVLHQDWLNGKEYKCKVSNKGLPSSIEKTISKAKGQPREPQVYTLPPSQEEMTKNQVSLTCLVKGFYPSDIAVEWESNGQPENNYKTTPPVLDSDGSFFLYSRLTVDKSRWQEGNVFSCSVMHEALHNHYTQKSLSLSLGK
light: SYELTQPPSVSVSPGQTARITCSGDALTSKYVAWYQQKSGLAPLLVIYEDTRRPSGIPAKFSGSSSGSVATLTISGAHGDDEADYYCYSTDASGHQRVFGGGTKLTVLSQPKAAPSVTLFPPSSEELQANKATLVCLISDFYPGAVTVAWKADGSPVKAGVETTKPSKQSNNKYAASSYLSLTPEQWKSHRSYSCQVTHEGSTVEKTVAPTECS
notes: pH-dependent anti-C2 antibody from a phage display library; also called WT
Turning to B1, the Fold diff in the experiment with human C2 L439A is 12 fold; in the experiment with human C2 K550A it was 1 fold; with human C2 E645A, 1 fold; with human C2 G530A, 2 fold.
